Target: SARS-CoV-2 S trimer (SARS-CoV-2, wild-type (Wuhan-Hu-1 …, UniProt P0DTC2))
Assay: SPR

B1: C121 IgG (antibody, V domains shown)
VH: not shown
VL: QSALTQPASVSGSPGQSITISCTGTSSDVGSYNLVSWYQQHPGKAPKLMIYEGSKRPSGVSNRFSGSKSGNTASLTISGLQAEDEADYYCCSYAGSSTLVFGGGTKLTVL
Does B1 bind?
Result: binds

From doi:10.1101/2021.01.22.427567 (bioRxiv, 2021)
